According to patent US10801046B2, “Methods and materials for biosynthesizing multifunctional, multivariate molecules via carbon chain modification” (INVISTA NORTH AMERICA S.A.R.L., priority 2016, dated 2020):

Columns and labels:
[1] = test system: heptanedioyl-[acp] or heptanedioyl-[acp] methyl ester; experiment: Thioesterase enzyme activity assay, release of holo-ACP monitored by absorbance at 412 nm; format: biochemical; details: purified thioesterase, 37° C., 30 min, FIG. 41
Protocol: The thioesterases were expressed and purified following procedures disclosed herein. The enzyme activity assay was performed in duplicate or triplicate in a buffer having heptanedioyl-[acp] or heptanedioyl-[acp] methyl ester as substrate. The enzyme activity assay reaction was initiated by adding purified thioesterase gene products to the assay buffer and incubating at 37° C. for 30 min. The release of holo-ACP was monitored by absorbance at 412 nm. The absorbance associated with the empty vector control is very low. Many of the gene products of thioesterases accepted heptanedioyl-[acp] or heptanedioyl-[acp] methyl ester as substrate as confirmed via relative spectrophotometry (see FIG. 41).

[2] = Aminotransferase activity, heptane-1,7-diamine to 7-aminoheptanal, L-alanine formation by RP-HPLC; format: biochemical; details: cell free extract, 10 mM substrate, 25° C., 4 h, against empty vector control, FIG. 50
Protocol: A sequence encoding an N-terminal His-tag was added to the Chromobacterium violaceum, Pseudomonas aeruginosa, Pseudomonas syringae, Rhodobacter sphaeroides, Escherichia coli, and Vibrio fluvialis genes encoding the aminotransferases of SEQ ID NOs: 116 (GenBank Accession No. AAQ59697.1), 119 (RefSeq Accession No. NP_417544.5), 125 (GenBank Accession No. AAGO8191.1), 126 (GenBank Accession No. AAY39893.1), 127 (GenBank Accession No. ABA81135.1), and 128 (GenBank Accession No. AEA39183.1), respectively such that N-terminal HIS tagged aminotransferases could be produced. The modified genes were cloned into a pET21a expression vector under the T7 promoter. Each expression vector was transformed into a BL21[DE3] E. coli host. Each resulting recombinant E. coli strain were cultivated at 37° C. in a 250 mL shake flask culture containing 50 mL LB media and antibiotic selection pressure, with shaking at 230 rpm. Each culture was induced overnight at 16° C. using 1 mM IPTG.
The pellet from each induced shake flask culture was harvested via centrifugation. Each pellet was resuspended and lysed via sonication. The cell debris was separated from the supernatant via centrifugation and the cell free extract was used immediately in enzyme activity assays.
Enzyme activity assays in the reverse direction (i.e., heptane-1,7-diamine to 7-aminoheptanal) were performed in a buffer composed of a final concentration of 50 mM HEPES buffer (pH=7.5), 10 mM heptane-1,7-diamine, 10 mM pyruvate, and 100 μM pyridoxyl 5′ phosphate. Each enzyme activity assay reaction was initiated by adding cell free extract of the aminotransferase gene product or the empty vector control to the assay buffer containing the heptane-1,7-diamine and then incubated at 25° C. for 4 h, with shaking at 250 rpm. The formation of L-alanine was quantified via RP-HPLC.

[3] = Aminotransferase activity, N7-acetyl-1,7-diaminoheptane to N7-acetyl-7-aminoheptanal, L-alanine formation by RP-HPLC; format: biochemical; details: cell free extract, 10 mM substrate, 25° C., 4 h, against empty vector control, FIG. 51
Protocol: The activity of the N-terminal His-tagged aminotransferases of SEQ ID NOs: 116 (GenBank Accession No. AAQ59697.1), 119 (RefSeq Accession No. NP_417544.5), 125 (GenBank Accession No. AAGO8191.1), 126 (GenBank Accession No. AAY39893.1), 127 (GenBank Accession No. ABA81135.1), and 128 (GenBank Accession No. AEA39183.1) (see Example 6) for converting N7-acetyl-1,7-diaminoheptane to N7-acetyl-7-aminoheptanal was assayed using a buffer composed of a final concentration of 50 mM HEPES buffer (pH=7.5), 10 mM N7-acetyl-1,7-diaminoheptane, 10 mM pyruvate and 100 μM pyridoxyl 5′ phosphate. Each enzyme activity assay reaction was initiated by adding a cell free extract of the aminotransferases or the empty vector control to the assay buffer containing the N7-acetyl-1,7-diaminoheptane then incubated at 25° C. for 4 h, with shaking at 250 rpm. The formation of L-alanine was quantified via RP-HPLC.

heptanedioyl-ACP = format: cell-based, Escherichia coli; details: top 150 hits screened in vivo

Molecule	synthesis of holo-ACP using heptanedioyl-[acp] methyl ester as substrate, compared to using heptanedioyl-[acp] as substrate [1]	acceptance of heptane-1,7-diamine as substrate, forming 7-aminoheptanal [2]	acceptance of N7-acetyl-1,7-diaminoheptane as substrate, forming N7-acetyl-7-aminoheptanal [3]	activity toward heptanedioyl-ACP in vivo (heptanedioyl-ACP)
6TE: Lactobacillus delbrueckii thioesterase (protein, listed as Lactobacillus delbrueckii) MRYYKDYQLKYVDCGESGQLKLPRMIDLMMESSEGQLAPTLGGASAMKERGRGWVVTQYEFEFTSLPRAGQKVRVWTEAVGYNRFLSYRDFGIEDEAGKDLVIAHSQWVLFDLKSRKLLPSDDKIAEELGAPLLAKIPRFKKLRPKDDYKDEKVYRAYYYDLDSNHHVNNAHYLDWIVDSLPRDFVNSHEPKDLAIKFDKEIKYGDEVVCQVMQETEDSAVKTCHAITRQGELMALCEVNWQKMCFNRD	more efficiently	–	–	–
SEQ ID NO: 119: Escherichia coli aminotransferase, gene product of ygjG (protein, Escherichia coli (strain K12), Escherichia coli aminotransferase, gene product of ygjG) MNRLPSSASALACSAHALNLIEKRTLDHEEMKALNREVIEYFKEHVNPGFLEYRKSVTAGGDYGAVEWQAGSLNTLVDTQGQEFIDCLGGFGIFNVGHRNPVVVSAVQNQLAKQPLHSQELLDPLRAMLAKTLAALTPGKLKYSFFCNSGTESVEAALKLAKAYQSPRGKFTFIATSGAFHGKSLGALSATAKSTFRKPFMPLLPGFRHVPFGNIEAMRTALNECKKTGDDVAAVILEPIQGEGGVILPPPGYLTAVRKLCDEFGALMILDEVQTGMGRTGKMFACEHENVQPDILCLAKALGGGVMPIGATIATEEVFSVLFDNPFLHTTTFGGNPLACAAALATINVLLEQNLPAQAEQKGDMLLDGFRQLAREYPDLVQEARGKGMLMAIEFVDNEIGYNFASEMFRQRVLVAGTLNNAKTIRIEPPLTLTIEQCELVIKAARKALAAMRVSVEEA	–	accepted heptane-1,7-diamine as substrate	accepted N7-acetyl-1,7-diaminoheptane as a substrate	–
SEQ ID NO: 125: Pseudomonas aeruginosa aminotransferase (protein, listed as Pseudomonas aeruginosa, Pseudomonas aeruginosa (strain ATCC 15692 / DSM 22644 / CIP 104116 / JCM 14847 / LMG 12228 / 1C / PRS 101 / PAO1), Pseudomonas aeruginosa aminotransferase) MNARLHATSPLGDADLVRADQAHYMHGYHVFDDHRVNGSLNIAAGDGAYIYDTAGNRYLDAVGGMWCTNIGLGREEMARTVAEQTRLLAYSNPFCDMANPRAIELCRKLAELAPGDLDHVFLTTGGSTAVDTAIRLMHYYQNCRGKRAKKHVITRINAYHGSTFLGMSLGGKSADRPAEFDFLDERIHHLACPYYYRAPEGLGEAEFLDGLVDEFERKILELGADRVGAFISEPVFGSGGVIVPPAGYHRRMWELCQRYDVLYISDEVVTSFGRLGHFFASQAVFGVQPDIILTAKGLTSGYQPLGACIFSRRIWEVIAEPDKGRCFSHGFTYSGHPVACAAALKNIEIIEREGLLAHADEVGRYFEERLQSLRDLPIVGDVRGMRFMACVEFVADKASKALFPESLNIGEWVHLRAQKRGLLVRPIVHLNVMSPPLILTREQVDTVVRVLRESIEETVEDLVRAGHR	–	accepted heptane-1,7-diamine as substrate	accepted N7-acetyl-1,7-diaminoheptane as a substrate	–
11TE: Bacillus coagulans thioesterase (protein, Bacillus coagulans (strain 2-6), Bacillus coagulans thioesterase) MANGSSLYKGQYHIELRDVDFTKKLKLSALFSLFQDIASLAAEDLGYGIETLEKKYKVAWILTRIRVDILRHPTWDENITIETWPLQPSKIDFDRDFLVKDHTGAVIIKAASKWVVMGLNDRKIKRTESINIHYPENRTERAIEGKFGKFKDFGGLEPAYQKVIGYSDIDFNGHLNNSKYVDYIMDCFLPDFHKRHPIHTIEINFNQEALPGDSITLYKDISKMDEHELYVEGVNQTDHHTIFKSHITIH	more efficiently	–	–	displayed considerable activity toward heptanedioyl-ACP
5TE: Lactobacillus brevis thioesterase (protein, Lactobacillus brevis (strain ATCC 367 / JCM 1170), Lactobacillus brevis thioesterase) MAANEFSETHRVVYYEADDTGQLTLAMLINLFVLVSEDQNDALGLSTAFVQSHGVGWVVTQYHLHIDELPRTGAQVTIKTRATAYNRYFAYREYWLLDDAGQVLAYGEGIWVTMSYATRKITTIPAEVMAPYHSEEQTRLPRLPRPDHFDEAVNQTLKPYTVRYFDIDGNGHVNNAHYFDWMLDVLPATFLRAHHPTDVKIRFENEVQYGHQVTSELSQAAALTTQHMIKVGDLTAVKATIQWDNR	more efficiently	–	–	–
14 TE: Paenibacillus lactis thioesterase (protein, Paenibacillus lactis 154, Paenibacillus lactis thioesterase) MVEKWTETYTIQSVDADFRGDCRWSSLLSIMQRAADKHIEALGIDREEMIERGLGWMLITLEADMTSIPRDMETIHVETWSRGSKGVLWHRDYRIMNDHGEQVGGARSVWTLVDIQKRKILRPSMFPYDVPIGQDSVGELPSKAVLPEGIELGEAYTTVVRYSGIDVNGHLNNARYADLCMDVLDEPELQGDKVTGFKITYNHEARLKDTIIVRRSGEIEGRIFVQGVSPEGTNFFEAALVKRKQ	more efficiently	–	–	–
